Source: the supplement of paper PMC10126150
± gives the standard deviation of the averaged measurements.

The sequences below were run on ATP (assay: switch fluorescence ratio, 500 uM ATP over buffer (Cy3 cluster intensity, sum of 5 cycles each) (fold (ratio)); higher = stronger signal-on switching upon ATP binding; sequences stand for … in TCGTCGGCAGCGTCAGATGTGTATAAGAGACAGTTTTTTTTTTTTTTTTTTTTTTTTT…TC). Conditions: aptamer strand: ATP DNA aptamer (quencher-CACCTGGGGGAGTATTGCGGAGGAAGG + anchor), 100 nM annealed; ATP concentration: 500 uM.
Procedure, shortened: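 Between each of five buffer/ATP cycles, the flow-cell was stripped with NaOH and re-annealed. Each cycle imaged Cy3-labelled switching-strand clusters, annealed to 100 nM quencher-labelled ATP aptamer on a modified Illumina MiSeq flow-cell, first in selection buffer and then after 15 min with 500 uM ATP at 22 °C. The fluorescence ratio is summed target-cycle over summed buffer-cycle Cy3 intensity per cluster, averaged per switch-domain sequence, with clusters outside 100-1000 RFU excluded.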
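Note: ATP exposure 15 min at 22 °C before imaging.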

Sequence	switch fluorescence ratio
TGGTTTGGCG	1.02 ± 0.18
TGGTTTGGTG	0.985 ± 0.034
TGGTTTTCTG	1.03 ± 0.051
TGGTTTTGAT	1.001 ± 0.0047
TGGTTTTGC	1.01 ± 0.023
TGGTTTTGTT	1.01 ± 0.058
TGGTTTTTCC	1.11 ± 0.12
TGGTTTTTT	0.998 ± 0.03
TGTAAAAAT	1.01 ± 0.042
TGTAAAGGGG	1.01 ± 0.029
TGTAAATGTG	1 ± 0.028
TGTAACTGTG	1.15 ± 0.028
TGTAAGGTTT	1.01 ± 0.024
TGTAAGTAGG	1.04 ± 0.025
TGTAATGGGG	0.966 ± 0.015
TGTAATTCTA	1.011 ± 0.0032
TGTACCTTTA	1.04 ± 0.038
TGTACGGAGG	1.04 ± 0.057
TGTACTATGC	1.06 ± 0.058
TGTAGAGGGA	1.005 ± 0.0046
TGTAGATGGC	1.03 ± 0.044
TGTAGATTTT	0.981 ± 0.011
TGTAGCCAGT	1.05 ± 0.07
TGTAGGGGCT	0.982 ± 0.026
TGTAGGTTCT	1.06 ± 0.051
TGTAGTCCTT	0.949 ± 0.015

Sequence	switch fluorescence ratio
TGTAGTTTTT	0.961 ± 0.025
TGTATATAGC	1 ± 0.021
TGTATATCTA	1.02 ± 0.025
TGTATCGTCG	0.944 ± 0.023
TGTATGAGGT	1.02 ± 0.013
TGTATGATGT	1.03 ± 0.049
TGTATTTAAG	0.97 ± 0.035
TGTCAAAAAC	1.28 ± 0.29
TGTCAAAAAG	1 ± 0.017
TGTCACAAGC	1.02 ± 0.013
TGTCAGGGTT	1 ± 0.014
TGTCAGTCGA	1.002 ± 0.0036
TGTCATCTAC	1.02 ± 0.016
TGTCATGTAT	0.987 ± 0.021
TGTCCGGTGG	1.01 ± 0.066
TGTCGACTTG	0.9716 ± 0.0066
TGTCGGGATG	1.01 ± 0.022
TGTCTACTCT	1 ± 0.022
TGTGAAACAA	1.01 ± 0.03
TGTGAAACGG	0.9916 ± 0.0072
TGTGAAATAG	1.02 ± 0.028
TGTGAACGGA	1.004 ± 0.01
TGTGAAGGCG	1.71 ± 1
TGTGAATCCA	0.976 ± 0.027
TGTGAATTCT	0.993 ± 0.023
TGTGACAATG	0.997 ± 0.012

Sequence	switch fluorescence ratio
TGTGACGAAC	1.23 ± 0.045
TGTGAGAGGT	0.995 ± 0.012
TGTGAGGGGG	1.01 ± 0.038
TGTGATCGAC	1.01 ± 0.018
TGTGATGAT	1.01 ± 0.028
TGTGATGTGG	1.04 ± 0.083
TGTGATTGGC	1.03 ± 0.041
TGTGATTGTG	0.967 ± 0.015
TGTGATTTGT	0.9702 ± 0.0032
TGTGCATCT	1.01 ± 0.015
TGTGGAATAA	1.03 ± 0.039
TGTGGATGGT	0.956 ± 0.019
TGTGGCACAT	1.005 ± 0.0065
TGTGGCGATT	1.02 ± 0.016
TGTGGCGCCA	0.987 ± 0.04
TGTGGCGTTT	1.04 ± 0.059
TGTGGCTATG	1.02 ± 0.014
TGTGGGAAGG	1.05 ± 0.074
TGTGGGATAT	1.05 ± 0.068
TGTGGGGGCT	1 ± 0.026
TGTGGGGGTG	1.01 ± 0.033
TGTGGGGTTT	1 ± 0.057
TGTGGGTATA	0.995 ± 0.02
TGTGGGTCAT	0.9762 ± 0.0021
TGTGGGTGGG	0.978 ± 0.025
TGTGGTATGC	1.01 ± 0.057

Sequence	switch fluorescence ratio
TGTGGTGAGT	0.963 ± 0.012
TGTGGTGGCG	0.935 ± 0.018
TGTGGTTAGC	1.01 ± 0.064
TGTGGTTCGA	0.972 ± 0.011
TGTGGTTGGA	1 ± 0.012
TGTGTATGAG	0.986 ± 0.036
TGTGTATGCT	0.9868 ± 0.0078
TGTGTCAATT	0.9841 ± 0.0092
TGTGTCATGG	0.986 ± 0.011
TGTGTCTATA	0.97698 ± 0.00069
TGTGTGATAC	1.549 ± 0.0055
TGTGTGCTGA	1.02 ± 0.028
TGTGTGGGGT	0.975 ± 0.021
TGTGTGGGTA	0.95768 ± 0.00058
TGTGTGGTTT	0.986 ± 0.036
TGTGTGTTAG	0.985 ± 0.016
TGTGTTAGAG	1.01 ± 0.019
TGTGTTTACC	1.01 ± 0.043
TGTGTTTATT	1.051 ± 0.008
TGTGTTTCGG	0.9799 ± 0.0082
TGTGTTTTGG	0.99 ± 0.027
TGTGTTTTT	0.992 ± 0.038
TGTTAAGGGA	1 ± 0.02
TGTTAATCAG	0.98605 ± 0.00081
TGTTACACCT	1.23 ± 0.025
TGTTAGGAGA	1 ± 0.018

Sequence	switch fluorescence ratio
TGTTAGGGAG	0.987 ± 0.03
TGTTAGGGAT	1.01 ± 0.034
TGTTAGGGG	1 ± 0.049
TGTTAGGGGT	1 ± 0.075
TGTTAGTATT	0.999 ± 0.019
TGTTAGTGGC	1 ± 0.04
TGTTATAAAC	1.02 ± 0.017
TGTTATAGG	1.001 ± 0.0098
TGTTATAGGG	1.03 ± 0.033
TGTTATATGC	1 ± 0.019
TGTTATCGTT	0.989 ± 0.018
TGTTATTAGT	1.01 ± 0.022
TGTTCACTTT	1.04 ± 0.036
TGTTCCGGAC	1.023 ± 0.0058
TGTTCGGTCG	1.005 ± 0.0014
TGTTCTAGGG	1.01 ± 0.013
TGTTGAGGAA	1.05 ± 0.053
TGTTGCAAGT	0.976 ± 0.017
TGTTGCATCG	1 ± 0.019
TGTTGCGGAT	1.24 ± 0.29
TGTTGCGGGT	1.01 ± 0.042
TGTTGGCGCG	0.989 ± 0.053
TGTTGGGCCC	1 ± 0.018
TGTTGGGCGG	0.969 ± 0.026
TGTTGGGGAG	0.972 ± 0.025
TGTTGGGGTG	0.997 ± 0.045

Sequence	switch fluorescence ratio
TGTTGGGTGT	1.01 ± 0.031
TGTTGGTAAA	1.02 ± 0.024
TGTTGGTGTA	0.994 ± 0.01
TGTTGGTTTG	1.08 ± 0.14
TGTTGGTTTT	1.02 ± 0.027
TGTTGTAGCG	0.975 ± 0.037
TGTTGTAGGA	0.997 ± 0.015
TGTTGTGAGG	0.997 ± 0.025
TGTTGTTAAT	0.999 ± 0.019
TGTTGTTATT	1.018 ± 0.0091
TGTTGTTTTT	0.991 ± 0.037
TGTTTAAATA	1.033 ± 0.0035
TGTTTAACAG	1.03 ± 0.05
TGTTTATTGA	0.989 ± 0.013
TGTTTCCGGT	1.44 ± 0.59
TGTTTCGTTT	1 ± 0.055
TGTTTCTGG	0.996 ± 0.036
TGTTTCTTGA	1.01 ± 0.058
TGTTTGAATG	0.9585 ± 0.0029
TGTTTGAGG	0.9559 ± 0.009
TGTTTGATTT	0.975 ± 0.019
TGTTTGGGGC	0.989 ± 0.019
TGTTTGTATT	0.955 ± 0.03
